A word on the Kd: it is the constant that tells how readily two partners part at equilibrium. Usually koff stands for the rate constant with which the complex falls apart. A word on the kon: it is the second-order rate constant of association. By EC50 (read off the curve) is commonly meant the concentration that produces a half-maximal response. Broadly, the EC50 is the concentration giving half of the maximal effect.

The values below come from patent publication US20240043568A1.

The target in experiment [1] is recombinant human GPC3 protein (human) (UniProt P51654). The experiment is described as follows: BLI (Octet), antibody on Protein A probe. In general terms: In BLI a coated tip is dipped into the sample, and binding shifts an interference pattern.
The target is the same in experiment [2]. The experiment is described as follows: ELISA on coated recombinant human GPC3 protein, OD450 [panel Recombinant human GPC3 protein]. On the technique in general: An ELISA detects its analyte on a solid surface through an enzyme-linked reagent.
Experiment [3] deals with human GPC3 on cells (human) (UniProt P51654). As to the kind of experiment: flow cytometry, CHO-human GPC3 cells.
In experiment [4] the target is recombinant human GPC3 protein (human) (UniProt P51654). The experiment is described as follows: ELISA, coated antigen 1 µg/ml.
In experiment [5] the target is recombinant GST-human GPC3 stem protein (human). As to the kind of experiment: ELISA, coated antigen 1 µg/ml.
Experiment [6] deals with recombinant cynomolgus monkey GPC3 full-length protein (cynomolgus monkey). As to the kind of experiment: ELISA, coated antigen 1 µg/ml.
Experiment [7] has as its target recombinant human GPC3 protein (human) (UniProt P51654). The experiment is described as follows: BLI (Octet), antibody on Protein A probe. The source holds these as a separate data set.
Experiment [8] has as its target human GPC3 on cells (human) (UniProt P51654). The experiment is described as follows: flow cytometry on human GPC3-CHO stably-transfected cells, MFI. (In general: In flow cytometry, cells or beads pass a laser one at a time.)
Experiment [9] concerns the target recombinant human GPC3 protein (human) (UniProt P51654). The experiment is described as follows: SPR (Biacore T200), antibody on Protein A chip, GPC3 as analyte.
In experiment [10] the target is recombinant cynomolgus monkey GPC3 full-length protein (cynomolgus monkey). Described as above.
Experiment [11] has the same target. The experiment is described as follows: ELISA on coated recombinant cynomolgus monkey GPC3 protein, OD450 [panel Recombinant cynomolgus monkey GPC3 protein].
Experiment [12] has as its target human CD3 on T cells (human) (UniProt P07766). As to the kind of experiment: flow cytometry, human peripheral blood CD8+ T cells.
The target is the same in experiment [13]. As to the kind of experiment: flow cytometry, Jurkat cells.
For experiment [14] the target is unchanged. As to the kind of experiment: flow cytometry, human peripheral blood CD4+ T cells.

Chain of recombinant GST-human GPC3 stem protein (human) (chain, as listed by the source limits assumed, form in doubt): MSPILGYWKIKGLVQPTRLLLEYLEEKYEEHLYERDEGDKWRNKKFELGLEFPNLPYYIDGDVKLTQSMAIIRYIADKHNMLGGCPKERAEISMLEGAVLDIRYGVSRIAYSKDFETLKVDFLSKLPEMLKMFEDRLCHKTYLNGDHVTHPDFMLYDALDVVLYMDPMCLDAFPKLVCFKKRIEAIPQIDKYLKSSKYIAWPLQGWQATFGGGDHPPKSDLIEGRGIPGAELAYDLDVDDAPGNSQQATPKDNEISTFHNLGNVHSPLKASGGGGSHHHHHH

On to GC33 (antibody), for which the Kd in experiment [1] is 4.17 nM; in [7], 1.35 nM; in experiment [9], 1.03 nM; in [10], 6.38 nM. Further, the koff turned out to be 0.000229 s⁻¹ in [1], 0.000111 s⁻¹ in experiment [7], 0.000185 s⁻¹ in [9] and 0.000429 s⁻¹ in experiment [10]. Besides, the kon was 54900 M⁻¹ s⁻¹ in experiment [1], 82600 M⁻¹ s⁻¹ in experiment [7], 181000 M⁻¹ s⁻¹ in experiment [9] and 67200 M⁻¹ s⁻¹ in experiment [10]. Besides, the EC50 (read off the curve) in experiment [2] is 0.03 nM; in experiment [8], 4 nM; in [11] it was 0.03 nM. For the same substance, the EC50 in experiment [3] is 2.74 nM; in experiment [4], 0.074 nM; in experiment [5], 0.06 nM; in [6], 0.16 nM.
For KLH×CD3 (bispecific antibody), the EC50 in experiment [12] was 84 nM; in experiment [13], 27 nM; in experiment [14] it was 77 nM.
In turn, OKT3-hIgG1 (antibody) displayed an EC50 in experiment [13] of 0.27 nM.
